T1: RGMc antigen: amino acids 33-391 of RGMc followed by human Fc (human, UniProt Q6ZVN8 33-391)
T1 construct: also called RGMc-huFc; RGMc-Fc; not shown: human Fc
T1 sequence: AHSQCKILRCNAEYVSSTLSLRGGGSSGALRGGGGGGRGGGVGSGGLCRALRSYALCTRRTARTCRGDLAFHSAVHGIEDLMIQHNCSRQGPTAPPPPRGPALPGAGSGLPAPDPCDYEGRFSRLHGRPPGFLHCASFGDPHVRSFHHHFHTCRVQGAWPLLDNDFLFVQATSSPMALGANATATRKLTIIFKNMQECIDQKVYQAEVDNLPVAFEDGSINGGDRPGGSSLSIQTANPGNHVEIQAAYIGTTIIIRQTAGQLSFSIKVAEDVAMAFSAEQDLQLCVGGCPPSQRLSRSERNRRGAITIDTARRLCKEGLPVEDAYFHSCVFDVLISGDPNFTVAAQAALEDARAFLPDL

T2: carrier free RGMa (R&D Systems) (UniProt Q96B86 48-422, limits assumed)
T2 construct: also called RGMa-CF
T2 sequence (looked up): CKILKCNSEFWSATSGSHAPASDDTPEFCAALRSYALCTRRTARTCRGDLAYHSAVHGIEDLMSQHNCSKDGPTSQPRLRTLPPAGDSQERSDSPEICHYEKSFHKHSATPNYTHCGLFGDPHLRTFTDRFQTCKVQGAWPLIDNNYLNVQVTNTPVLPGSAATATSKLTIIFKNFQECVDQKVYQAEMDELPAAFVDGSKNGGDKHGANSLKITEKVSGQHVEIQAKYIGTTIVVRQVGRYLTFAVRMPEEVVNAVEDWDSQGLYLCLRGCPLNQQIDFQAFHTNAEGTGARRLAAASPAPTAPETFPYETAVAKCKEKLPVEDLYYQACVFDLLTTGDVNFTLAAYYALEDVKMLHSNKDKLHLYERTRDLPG

T3: carrier free RGMb (R&D Systems) (UniProt Q6NW40 46-413, limits assumed)
T3 construct: also called RGMb-CF
T3 sequence (looked up): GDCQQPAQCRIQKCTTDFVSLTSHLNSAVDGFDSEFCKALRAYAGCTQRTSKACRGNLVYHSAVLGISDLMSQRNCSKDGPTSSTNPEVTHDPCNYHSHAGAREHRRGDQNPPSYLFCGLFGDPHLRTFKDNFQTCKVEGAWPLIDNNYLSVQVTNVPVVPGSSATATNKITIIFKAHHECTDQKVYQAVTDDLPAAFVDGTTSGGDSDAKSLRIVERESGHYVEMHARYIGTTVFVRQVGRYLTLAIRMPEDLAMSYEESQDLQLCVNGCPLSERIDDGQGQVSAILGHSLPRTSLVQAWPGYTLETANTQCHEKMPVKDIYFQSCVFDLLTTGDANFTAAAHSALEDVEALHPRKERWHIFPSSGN

T4: carrier free RGMc (R&D Systems) (human, UniProt Q6ZVN8 36-400)
T4 construct: also called RGMc-CF
T4 sequence (looked up): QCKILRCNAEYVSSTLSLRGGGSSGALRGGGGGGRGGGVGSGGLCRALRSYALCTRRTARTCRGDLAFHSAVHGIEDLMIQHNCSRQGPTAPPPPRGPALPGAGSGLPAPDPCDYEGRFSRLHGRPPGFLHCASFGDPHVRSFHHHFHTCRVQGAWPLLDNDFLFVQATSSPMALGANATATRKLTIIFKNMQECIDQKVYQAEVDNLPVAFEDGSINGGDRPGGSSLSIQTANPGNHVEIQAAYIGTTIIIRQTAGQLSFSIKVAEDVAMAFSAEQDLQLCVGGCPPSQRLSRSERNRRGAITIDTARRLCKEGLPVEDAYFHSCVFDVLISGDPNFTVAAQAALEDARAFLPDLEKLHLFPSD

B1: 1A-2151-163 (antibody, V domains shown)
VH: EVQLQQSGPELLKPGASVKISCKASGYSFTDNTIHWVKQSQRKSLEWIGGISPRYGDIRYNVQFKDKATLTVDKSSSTAYMELRSLTSEDSAVYYCTRWDDGYYEDYAMDYWGQGTSVTVSS
VL: DILLTQSPAILSVSPGERVSFSCRASQSIGTSLHWYQQRRNGSPRLLIKYASESISGIPSRFSGSGSGTDFTLSINTVESEDIADYYCQQSNSWPYTFGGGTKLEIKR
B2: anti-RGMc 1A-2493-121 monoclonal antibody (antibody, V domains shown)
VH: DVQLQASGPDLVKPSQSLSLTCTVTGYSITSGYSWHWIRQFPGNKLEWMAYIHYTGDSNYNPSLKSRISITRDTSKNQFFLQLTSVTTEDTATYYCALFGLSGYWGQGTLVTVSA
VL: DVLMTQTPLSLPVSLGDQASISCRSSQNIIHSNGNTYLDWYLQKPGQSPKVLIYKVSNRFSGVPDRFSGSGSGTDFILKISRVEAEDLGVYYCLQGSHVPWTFGGGTKLEIKR
B3: 1A-2258-107 (antibody, V domains shown)
VH: EVQLVESGGGLVKPGGSLKLSCAASGFTFSDYFMFWVRQTPEKRLEWVATISDGGSYTYYSDSVKGRFTISRDNAKNNLFLQMSSLKSEDTAMYYCARDKYGDYDAMDYWGQGTSVTVSS
VL: DVVLTQSPASLAVSLGQRATISCKASQSVDYDSDSYMNWYQQKPGQPPKLLIYAASNLESGIPARFSGGGSGTDFTLNIHPVEEEDAATYYCQQSNEDPPTFGGGTKLEIKR

Columns and labels:
[1] = biological target: T5, mouse:human chimeric antibody (used as human IgG / human IgG Fc antigen); assay: direct EIA: mouse:human chimeric antibody coated at 1.0 ug/mL; supernatant diluted 1:125; goat anti-mouse IgG Fc-HRPO
T5 construct: also called Hu IgG; human IgG Fc portion
Procedure: (§1) A mouse:human chimeric antibody or RGMc-huFc was coated on the solid phase of micro-titer EIA plates at 1.0 ug/mL. After the antigen had been coated on the solid phase, it was removed and any open binding sites on the plates were blocked using BSA block solution. The wells were washed with distilled water. Cell supernatants and control reagents were added to the blocked plates and allowed to incubate at room temperature for at least one hour. The negative control was a purified mAb from a different antigen system. The positive control for human IgG was a purified anti-hu IgG mAb developed against another antigen containing human IgG Fc carrier protein. The RGMc positive control is Novus mab 1C12. Following this incubation, the solutions were removed from the plates and they were washed with distilled water. Goat anti-mouse IgG Fc-HRPO (Jackson Immunoresearch) diluted to approximately 200 ng/mL in block solution was added to the plates and allowed to incubate for 30 minutes at room temperature. The plates were washed with distilled water and o-phenylenediamine substrate (Abbott Laboratories) was used as the chromogen to generate signal. Plates were read at 492 nm and the results were analyzed.

[2] = biological target: T1, RGMc antigen: amino acids 33-391 of …; assay: chemiluminescence immunoassay: supernatant mAb captured on sheep anti-mouse IgG Fc, RGMc-huFc at 200 ng/mL, acridinium-labeled goat anti-RGMc detection
Procedure: Cell supernatant samples were analyzed for anti-RGMc antibodies by Chemiluminescence immunoassay (CIA). Sheep anti-mouse IgG Fc (Jackson Immunoresearch, West Grove, Pa.) was coated on 96 well micro-titer CIA plates (NUNC) at 5 ug/mL. After the capture reagent had been coated on the solid phase, it was removed and any open binding sites on the plates were blocked using a Fish gel/PBS (2% v/v) block solution. The wells were washed with distilled water and cell supernatants were added to the blocked plates and allowed to incubate at room temperature for at least one hour. The anti-mouse IgG Fc captures the anti-RGMc mouse antibody from the supernatant. Following the incubation, the supernatants were washed off using distilled water. A mouse/human IgG chimeric antibody (Abbott Laboratories) diluted in fish gel block to 5 ug/ml was added to each well and incubated for approximately 30 minutes at room temperature to block any captured mAbs that are specific for human IgG Fc portion of the immunogen. Following the incubation, the human IgG blocking solution was washed off using distilled water. RGMc-huFc antigen was then added to the plates at 200 ng/mL in fish gel block and incubated for 30 minutes at room temperature. Following this incubation, the antigen was washed from the plates using distilled water. Acridinium labeled goat anti-RGMc polyclonal antibody (R&D Systems, Minneapolis, Minn.) was diluted to 200 ng/ml in fish gel block, then added to the plates and allowed to incubate for 30 minutes at room temperature. The plates were washed with distilled water then processed on the Microbeta Jet instrument (Perkin Elmer, Waltham, Mass.). The Microbeta Jet adds Architect© Pre-Trigger and Trigger solutions (Abbott Laboratories). The plates are then read for flash chemiluminescence in luminescent counts per second (LCPS). […] The positive control (PC) used in this assay was spent medium from unfused splenocytes harvested from mouse #814 that were cultured for 7 to 10 days at 37° C.

[3] = biological target: T1, RGMc antigen: amino acids 33-391 of …; assay: direct EIA: RGMc-huFc coated at 1.0 ug/mL; supernatant diluted 1:125; goat anti-mouse IgG Fc-HRPO
Procedure: as §1

[4] = biological target: T2, carrier free RGMa (R&D Systems); assay: EIA on coated carrier-free RGMa (summary of specificity)
Procedure: (§2) Clones were then tested for cross-reactivity with RGMa and RGMb by EIA. Carrier free RGMa, RGMb, or RGMc (R&D Systems) was coated on the solid phase of micro-titer EIA plates at 0.5 ug/mL. After the antigen had been coated on the solid phase, it was removed and any open binding sites on the plates were blocked using fish gel block solution. The wells were washed with distilled water following this incubation. Cell supernatants and control reagents were added to the blocked plates and allowed to incubate at room temperature for at least one hour. The negative control was a purified mouse mAb from a different antigen system. The positive control for RGMa, RGMb, & RGMc was a goat anti-RGMa, RGMb, or RGMc polyclonal antibody (R&D Systems). Following this incubation, the solutions were removed from the plates and they were washed with distilled water. Donkey anti-Goat IgG-HRPO diluted to approximately 200 ng/mL in block solution was added to the plates with the positive control test samples and goat anti-mouse IgG-HRPO (Jackson Immunoresearch) diluted to approximately 200 ng/mL in block solution was added to the plates with the fusion #1 test samples. All plates were allowed to incubate for 30 minutes at room temperature. The plates were washed with distilled water and o-phenylenediamine substrate was used as the chromogen to generate signal. Plates were read at 492 nm and the results were analyzed.

[5] = biological target: T3, carrier free RGMb (R&D Systems); assay: EIA on coated carrier-free RGMb (summary of specificity)
Procedure: as §2

[6] = biological target: T4, carrier free RGMc (R&D Systems); assay: … two-step sandwich chemiluminescent assay; 1A-2493-121 on microparticles as capture, goat polyclonal AF3720 conjugate as detection
[7] = biological target: T1, RGMc antigen: amino acids 33-391 of …; assay: … two-step sandwich chemiluminescent assay; 1A-2493-121 on microparticles as capture, goat polyclonal AF3720 CPSP conjugate as detection
Procedure: The Architect assay is a two-step assay format, wherein a 30 μl sample is mixed with 50 μl of line diluent. […] At the end of 18 minutes, unbound sample is washed away. 50 μl of R&D System Goat polyclonal AF3720 CPSP conjugate at 800 ng/mL was added to the mixture, vortexed, and incubated for 4 minutes. […] The relative light units are then measured.

Binder	absorbance at 492 nm [1]	LCPS [2] [LCPS]	absorbance at 492 nm [3]	binding result [4]	binding result [5]	binding result [6]	binding result [7]
B1	0.07	4390	1.25	no binding	no binding	–	–
B2	–	–	–	–	–	binds	binds
B3	–	2640	–	no binding	no binding	–	–
